# Measurements from PMC4460075, “ULK2 Ser 1027 Phosphorylation by PKA Regulates Its Nuclear Localization Occurring through Karyopherin Beta 2 Recognition of a PY-NLS Motif” (PLoS ONE, 2015).
# T1: karyopherin beta 2 (Kapβ2), endogenous (human (endogenous in HEK293), UniProt Q92973 1-898)
# T1 sequence (looked up): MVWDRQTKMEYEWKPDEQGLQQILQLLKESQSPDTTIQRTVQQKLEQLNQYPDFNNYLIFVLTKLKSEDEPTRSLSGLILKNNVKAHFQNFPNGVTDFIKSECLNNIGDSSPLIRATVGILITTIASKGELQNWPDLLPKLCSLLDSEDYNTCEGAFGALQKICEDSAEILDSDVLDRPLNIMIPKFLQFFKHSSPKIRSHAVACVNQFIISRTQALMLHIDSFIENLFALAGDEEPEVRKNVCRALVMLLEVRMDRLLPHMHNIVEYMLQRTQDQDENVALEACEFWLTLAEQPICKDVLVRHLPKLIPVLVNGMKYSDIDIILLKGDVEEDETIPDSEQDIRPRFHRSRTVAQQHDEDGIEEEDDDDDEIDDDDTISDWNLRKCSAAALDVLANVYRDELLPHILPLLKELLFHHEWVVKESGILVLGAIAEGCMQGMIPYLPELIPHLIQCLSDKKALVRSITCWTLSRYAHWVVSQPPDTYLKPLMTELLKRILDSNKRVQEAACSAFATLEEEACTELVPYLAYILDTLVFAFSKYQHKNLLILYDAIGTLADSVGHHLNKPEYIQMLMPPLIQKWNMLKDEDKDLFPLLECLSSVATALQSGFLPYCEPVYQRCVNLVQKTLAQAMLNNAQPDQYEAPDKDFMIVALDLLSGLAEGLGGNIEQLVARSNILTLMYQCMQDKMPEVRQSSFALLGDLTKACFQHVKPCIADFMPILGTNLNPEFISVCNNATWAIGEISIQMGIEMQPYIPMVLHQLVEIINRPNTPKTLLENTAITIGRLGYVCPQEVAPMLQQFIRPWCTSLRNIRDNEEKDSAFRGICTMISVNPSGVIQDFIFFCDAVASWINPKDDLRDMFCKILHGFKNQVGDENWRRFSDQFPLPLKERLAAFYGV
# Biological target: T1, karyopherin beta 2 (Kapβ2), endogenous
# Test: cell-based or functional assay
binder,measurement,value
"EGFP-ULK2 WT (natural protein, human, UniProt Q8IYT8 1-1036, looked up) MEVVGDFEYSKRDLVGHGAFAVVFRGRHRQKTDWEVAIKSINKKNLSKSQILLGKEIKILKELQHENIVALYDVQELPNSVFLVMEYCNGGDLADYLQAKGTLSEDTIRVFLHQIAAAMRILHSKGIIHRDLKPQNILLSYANRRKSSVSGIRIKIADFGFARYLHSNMMAATLCGSPMYMAPEVIMSQHYDAKADLWSIGTVIYQCLVGKPPFQANSPQDLRMFYEKNRSLMPSIPRETSPYLANLLLGLLQRNQKDRMDFEAFFSHPFLEQGPVKKSCPVPVPMYSGSVSGSSCGSSPSCRFASPPSLPDMQHIQEENLSSPPLGPPNYLQVSKDSASTSSKNSSCDTDDFVLVPHNISSDHSCDMPVGTAGRRASNEFLVCGGQCQPTVSPHSETAPIPVPTQIRNYQRIEQNLTSTASSGTNVHGSPRSAVVRRSNTSPMGFLRPGSCSPVPADTAQTVGRRLSTGSSRPYSPSPLVGTIPEQFSQCCCGHPQGHDSRSRNSSGSPVPQAQSPQSLLSGARLQSAPTLTDIYQNKQKLRKQHSDPVCPSHTGAGYSYSPQPSRPGSLGTSPTKHLGSSPRSSDWFFKTPLPTIIGSPTKTTAPFKIPKTQASSNLLALVTRHGPAEEQSKDGNEPRECAHCLLVQGSERQRAEQQSKAVFGRSVSTGKLSDQQGKTPICRHQGSTDSLNTERPMDIAPAGACGGVLAPPAGTAASSKAVLFTVGSPPHSAAAPTCTHMFLRTRTTSVGPSNSGGSLCAMSGRVCVGSPPGPGFGSSPPGAEAAPSLRYVPYGASPPSLEGLITFEAPELPEETLMEREHTDTLRHLNVMLMFTECVLDLTAMRGGNPELCTSAVSLYQIQESVVVDQISQLSKDWGRVEQLVLYMKAAQLLAASLHLAKAQIKSGKLSPSTAVKQVVKNLNERYKFCITMCKKLTEKLNRFFSDKQRFIDEINSVTAEKLIYNCAVEMVQSAALDEMFQQTEDIVYRYHKAALLLEGLSRILQDPADIENVHKYKCSIERRLSALCHSTATV","nuclear-to-total fluorescence ratio (Fn/t) of EGFP-ULK2 WT in HEK293 cells, confocal microscopy (Fig 3D)",44.5
"Uncoordinated 51-like kinase 2 (ULK2), endogenous (natural protein, human (endogenous in HEK293), UniProt Q8IYT8 1-1036, looked up) MEVVGDFEYSKRDLVGHGAFAVVFRGRHRQKTDWEVAIKSINKKNLSKSQILLGKEIKILKELQHENIVALYDVQELPNSVFLVMEYCNGGDLADYLQAKGTLSEDTIRVFLHQIAAAMRILHSKGIIHRDLKPQNILLSYANRRKSSVSGIRIKIADFGFARYLHSNMMAATLCGSPMYMAPEVIMSQHYDAKADLWSIGTVIYQCLVGKPPFQANSPQDLRMFYEKNRSLMPSIPRETSPYLANLLLGLLQRNQKDRMDFEAFFSHPFLEQGPVKKSCPVPVPMYSGSVSGSSCGSSPSCRFASPPSLPDMQHIQEENLSSPPLGPPNYLQVSKDSASTSSKNSSCDTDDFVLVPHNISSDHSCDMPVGTAGRRASNEFLVCGGQCQPTVSPHSETAPIPVPTQIRNYQRIEQNLTSTASSGTNVHGSPRSAVVRRSNTSPMGFLRPGSCSPVPADTAQTVGRRLSTGSSRPYSPSPLVGTIPEQFSQCCCGHPQGHDSRSRNSSGSPVPQAQSPQSLLSGARLQSAPTLTDIYQNKQKLRKQHSDPVCPSHTGAGYSYSPQPSRPGSLGTSPTKHLGSSPRSSDWFFKTPLPTIIGSPTKTTAPFKIPKTQASSNLLALVTRHGPAEEQSKDGNEPRECAHCLLVQGSERQRAEQQSKAVFGRSVSTGKLSDQQGKTPICRHQGSTDSLNTERPMDIAPAGACGGVLAPPAGTAASSKAVLFTVGSPPHSAAAPTCTHMFLRTRTTSVGPSNSGGSLCAMSGRVCVGSPPGPGFGSSPPGAEAAPSLRYVPYGASPPSLEGLITFEAPELPEETLMEREHTDTLRHLNVMLMFTECVLDLTAMRGGNPELCTSAVSLYQIQESVVVDQISQLSKDWGRVEQLVLYMKAAQLLAASLHLAKAQIKSGKLSPSTAVKQVVKNLNERYKFCITMCKKLTEKLNRFFSDKQRFIDEINSVTAEKLIYNCAVEMVQSAALDEMFQQTEDIVYRYHKAALLLEGLSRILQDPADIENVHKYKCSIERRLSALCHSTATV","nuclear-to-total fluorescence ratio (Fn/t) of endogenous ULK2 in FSK-treated HEK293 cells (normal DMEM-grown cells: 49.36+/−4.90), confocal microscopy (Fig 6Q)",52.7
same,"nuclear-to-total fluorescence ratio (Fn/t) of endogenous ULK2 in H89-treated HEK293 cells (normal DMEM-grown cells: 49.36+/−4.90), confocal microscopy (Fig 6Q)",35.8
"EGFP-ULK2 PY-NLS mutant (P794A) (natural protein, human, UniProt Q8IYT8 1-1036, looked up) MEVVGDFEYSKRDLVGHGAFAVVFRGRHRQKTDWEVAIKSINKKNLSKSQILLGKEIKILKELQHENIVALYDVQELPNSVFLVMEYCNGGDLADYLQAKGTLSEDTIRVFLHQIAAAMRILHSKGIIHRDLKPQNILLSYANRRKSSVSGIRIKIADFGFARYLHSNMMAATLCGSPMYMAPEVIMSQHYDAKADLWSIGTVIYQCLVGKPPFQANSPQDLRMFYEKNRSLMPSIPRETSPYLANLLLGLLQRNQKDRMDFEAFFSHPFLEQGPVKKSCPVPVPMYSGSVSGSSCGSSPSCRFASPPSLPDMQHIQEENLSSPPLGPPNYLQVSKDSASTSSKNSSCDTDDFVLVPHNISSDHSCDMPVGTAGRRASNEFLVCGGQCQPTVSPHSETAPIPVPTQIRNYQRIEQNLTSTASSGTNVHGSPRSAVVRRSNTSPMGFLRPGSCSPVPADTAQTVGRRLSTGSSRPYSPSPLVGTIPEQFSQCCCGHPQGHDSRSRNSSGSPVPQAQSPQSLLSGARLQSAPTLTDIYQNKQKLRKQHSDPVCPSHTGAGYSYSPQPSRPGSLGTSPTKHLGSSPRSSDWFFKTPLPTIIGSPTKTTAPFKIPKTQASSNLLALVTRHGPAEEQSKDGNEPRECAHCLLVQGSERQRAEQQSKAVFGRSVSTGKLSDQQGKTPICRHQGSTDSLNTERPMDIAPAGACGGVLAPPAGTAASSKAVLFTVGSPPHSAAAPTCTHMFLRTRTTSVGPSNSGGSLCAMSGRVCVGSPPGPGFGSSPPGAEAAPSLRYVAYGASPPSLEGLITFEAPELPEETLMEREHTDTLRHLNVMLMFTECVLDLTAMRGGNPELCTSAVSLYQIQESVVVDQISQLSKDWGRVEQLVLYMKAAQLLAASLHLAKAQIKSGKLSPSTAVKQVVKNLNERYKFCITMCKKLTEKLNRFFSDKQRFIDEINSVTAEKLIYNCAVEMVQSAALDEMFQQTEDIVYRYHKAALLLEGLSRILQDPADIENVHKYKCSIERRLSALCHSTATV","nuclear-to-total fluorescence ratio (Fn/t) of the EGFP-ULK2 PY-NLS (P794A) mutant in HEK293 cells, confocal microscopy (Fig 3D)",17.1
"EGFP-ULK2 P242A mutant (natural protein, human, UniProt Q8IYT8 1-1036, looked up) MEVVGDFEYSKRDLVGHGAFAVVFRGRHRQKTDWEVAIKSINKKNLSKSQILLGKEIKILKELQHENIVALYDVQELPNSVFLVMEYCNGGDLADYLQAKGTLSEDTIRVFLHQIAAAMRILHSKGIIHRDLKPQNILLSYANRRKSSVSGIRIKIADFGFARYLHSNMMAATLCGSPMYMAPEVIMSQHYDAKADLWSIGTVIYQCLVGKPPFQANSPQDLRMFYEKNRSLMPSIPRETSAYLANLLLGLLQRNQKDRMDFEAFFSHPFLEQGPVKKSCPVPVPMYSGSVSGSSCGSSPSCRFASPPSLPDMQHIQEENLSSPPLGPPNYLQVSKDSASTSSKNSSCDTDDFVLVPHNISSDHSCDMPVGTAGRRASNEFLVCGGQCQPTVSPHSETAPIPVPTQIRNYQRIEQNLTSTASSGTNVHGSPRSAVVRRSNTSPMGFLRPGSCSPVPADTAQTVGRRLSTGSSRPYSPSPLVGTIPEQFSQCCCGHPQGHDSRSRNSSGSPVPQAQSPQSLLSGARLQSAPTLTDIYQNKQKLRKQHSDPVCPSHTGAGYSYSPQPSRPGSLGTSPTKHLGSSPRSSDWFFKTPLPTIIGSPTKTTAPFKIPKTQASSNLLALVTRHGPAEEQSKDGNEPRECAHCLLVQGSERQRAEQQSKAVFGRSVSTGKLSDQQGKTPICRHQGSTDSLNTERPMDIAPAGACGGVLAPPAGTAASSKAVLFTVGSPPHSAAAPTCTHMFLRTRTTSVGPSNSGGSLCAMSGRVCVGSPPGPGFGSSPPGAEAAPSLRYVPYGASPPSLEGLITFEAPELPEETLMEREHTDTLRHLNVMLMFTECVLDLTAMRGGNPELCTSAVSLYQIQESVVVDQISQLSKDWGRVEQLVLYMKAAQLLAASLHLAKAQIKSGKLSPSTAVKQVVKNLNERYKFCITMCKKLTEKLNRFFSDKQRFIDEINSVTAEKLIYNCAVEMVQSAALDEMFQQTEDIVYRYHKAALLLEGLSRILQDPADIENVHKYKCSIERRLSALCHSTATV","nuclear-to-total fluorescence ratio (Fn/t) of the EGFP-ULK2 P242A mutant in HEK293 cells, confocal microscopy (Fig 3D)",67.2
